Data taken from patent US20200199244A1 (published 2020).

B1: BMS3h-41-1 (other)
VH: EVQLLESGEGLVQPGGSLRLSCAASGFTFTEHEMIWVRQAPGKGLEWVSSISGNGANTYYADSVKGRFTISRDNSKNTLYLQMNSLRPEDTAVYYCAKEPLRFDYWGQGTLVTVSS
B2: BMS3h-41-13 (other)
VH: EVQLLESAGGLVQPGGSLRLSCAASGFTFAEYEMIWVRQAPGKGLEWVSSISGNGANTYYADSVKGRFTISRDNSKNTLYLQMNSLRAEDTAVYYCAKEPLRFDYWGQGALVTVSS
B3: BMS3h-41-2 (other)
VH: EVQLLESGGGLVQPGGSLRLSCAASGSTFTEYEMIWVRQAPGKGLEWISSISGNGANTYYADSVKGRFTISRDNSKNTLYLQMNSLRAEDTAVYFCAKEPLRFDYRGQGTLVTVSS
B4: BMS3h-41-9 (other)
VH: EVQLLEPGGGLVQPGGSLRLSCAASGFTFTEYEMIWVRKAPGKGMEWVSSISGNGANTYYADSVKGRFTISRDNSKNTLYLQMNSLRPEDTAVYYCAKEPLRFDDWGQGTLVTVSS
B5: BMS3h-56-1 (other)
VH: EVQLLESGGGLVQPGGSLRLSCAASGFTFRDYEMWWVRQAPGKGLERVSAINPQGTRTYYADSVKGRFTISRDNSKNTLYLQMNSLRAEDTAVYYCAKLPFTFEDWGQGTLVTVSS
B6: BMS3h-56-244 (other)
VH: EVQLLESGGGLVQPGGSLRLSCAASGFTFRDYEMWWVRQAPGKGLERVSAINPWGGLTYYADSVKGRFTISRDNSKNTLYLQMNSLRAEDTAVYYCAKLPFTFDDWGQGTLVTVSS
B7: BMS3h-56-246 (other)
VH: EVQLLESGGGLVQPGGSLRLSCAASGFTFRDYEMWWVRQAPGKGLERVSAINPWGTLTYYADSVKGRFTISRDNSKNTLYLQMNSLRAEDTAVYYCAKLPFTFEDWGQGTLVTVSS
B8: BMS3h-56-224 (other)
VH: EVQLLESGGGLVQPGGSLRLSCAASGFTFRDYEMWWVRQAPGKGLERVSAINPWGQLTYYADSVKGRFTISRDNSKNTLYLQMNSLRAEDTAVYYCAKLPFTFEDWGQGTLVTVSS
B9: BMS3h-56-203 (other)
VH: EVQLLESGGGLVQPGGSLRLSCAASGFTFRDYEMWWVRQAPGKGLERVSAINPQGTRTYYADSVKGRFTISRDNSKNTLYLQMNSLRAEDTAVYYCAKLPFFFEEWGQGTLVTVSS
B10: BMS3h-56-215 (other)
VH: EVQLLESGGGLVQPGGSLRLSCAASGFTFRDYEMWWVRQAPGKGLERVSAINPHGSLTYYADSVKGRFTISRDNSKNTLYLQMNSLRAEDTAVYYCAKLPFTFDDWGQGTLVTVSS
B11: BMS3h-56-202 (other)
VH: EVQLLESGGGLVQPGGSLRLSCAASGFTFRDYEMWWVRQAPGKGLERVSAINPQGTRTYYADSVKGRFTISRDNSKNTLYLQMNSLRAEDTAVYYCAKLPTYFSDRGQGTLVTVSS
B12: BMS3h-56-239 (other)
VH: EVQLLESGGGLVQPGGSLRLSCAASGFTFRDYEMWWVRQAPGKGLERVSAINPWGSLTYYADSVKGRFTISRDNSKNTLYLQMNSLRAEDTAVYYCAKLPFTFDDWGQGTLVTVSS
B13: BMS3h-56-2 (other)
VH: EVQLLESGGGLVQPGGSLRLSCAASGFTFRDYEMWWVRQAPGKGLERVSAINPQGTRTYYADSVKGRFTISRDNSKNTLYLQMNSLRAEDTAVYYCAKLPFTFDDWGQGTLVTVSS
B14: BMS3h-56-201 (other)
VH: EVQLLESGGGLVQPGGSLRLSCAASGFTFRDYEMWWVRQAPGKGLERVSAINPQGTRTYYADSVKGRFTISRDNSKNTLYLQMNSLRAEDTAVYYCAKLPFYFQEWGQGTLVTVSS
B15: BMS3h-56-243 (other)
VH: EVQLLESGGGLVQPGGSLRLSCAASGFTFRDYEMWWVRQAPGKGLERVSAINPWGGFTYYADSVKGRFTISRDNSKNTLYLQMNSLRAEDTAVYYCAKLPFTFEDWGQGTLVTVSS
B16: BMS3h-56-206 (other)
VH: EVQLLESGGGLVQPGGSLRLSCAASGFTFRDYEMWWVRQAPGKGLERVSAINPQGTRTYYADSVKGRFTISRDNSKNTLYLQMNSLRAEDTAVYHCAKLPMFFEDWGQGTLVTVSN
B17: BMS3h-56-217 (other)
VH: EVQLLESGGGLVQPGGSLRLSCAASGFTFRDYEMWWVRQAPGKGLERVSAINPWGSLTYYADSVKGRFTISRDNSKNTLYLQMNSLRAEDTAVYYCAKLPFTFEDWGQGTLVTVSS
B18: BMS3h-56-253 (other)
VH: EVQLLESGGGLVQPGGSLRLSCAASGFTFRDYEMWWVRQAPGKGLERVSAINPAGGYTYYADSVKGRFTISRDNSKNTLYLQMNSLRAEDTAVYHCAKLPFTFEDWGQGTLVTVSS
B19: BMS3h-56-232 (other)
VH: EVQLLESGGGLVQPGGSLRLSCAASGFTFRDYEMWWVRQAPGKGLERVSAINPWGSHTYYADSVKGRFTISRDNSKNTLYLQMNSLRAEDTAVYYCAKLPFTFDDWGQGTLVTVSS
B20: BMS3h-56-248 (other)
VH: EVQLLESGGGLVQPGGSLRLSCAASGFTFRDYEMWWVRQAPGKGLERVSAINPYGNLTYYADSVKGRFTISRDNSKNTLYLQMNSLRAEDTAVYYCAKLPFTFDDWGQGTLVTVSS
B21: BMS3h-43-1 (other)
VH: EVQLLESGGGLVQPGGSLRLSCTASGFTFNMYEMSWVRQAPGKGLEWVSGISRRGFTTYYADSVKGRFTISRDNSKNTLYLQMNSLRAEDTAVYYCAKEPITYDLRYARFDYSGQGTLVTVSS
B22: BMS3h-43-3 (other)
VH: EVQLLESGGGLVQPGGSLRLSCTASGFTFNMYEMSWVRQAPGKGLEWVSGISRRGFTTYYADSVKGRFTISRDNFKNTLYLQMNSLRAEDTAVYYCAKEPITYDMRYARFDYGGQGTLVTVSS
B23: BMS3h-43-5 (other)
VH: EVQLLESGGGLVQPGGSLRLSCTASGFTFNTYEMSWVRQAPGKGLEWVSGIGRRGFTTYYADSVKGRFTISRDNSKNTLYLQMNSLRAEDTAVYYCAKEPITYDLRYARFDYSGQGTLVTVSS
B24: BMS3h-43-11 (other)
VH: EVQLLESGGGLVQPGGSLRLSCTASGFTFNMYEMSWVRKAPGKGLEWVSGISRHGFTTYYADSVKGRFTISRDNSKNTLYLQMNSLRAEDTAVYYCAKEPITYDMRYARFDYWGQGTLVTVSS
B25: BMS3h-38-235 (other)
VH: EVQLLASGGGLVQPGGSLRLSCAASGFTFEEEEMIWVRQAPGKGLEWVSAISRNGYSTYYADSVKGRFTISRDNSKNTLYLQMNSLRAEDTAVYYCGKEPFRYDYWGQGTLVTVSS
B26: BMS3h-38-238 (other)
VH: EVQLLASGGGLVQPGGSLRLSCAASGFTFEEEEMIWVRQAPGKGLEWVSAISRSGYSTYYADSVKGRFTISRDNSKNTLYLQMNSLRAEDTAVYYCGKEPFRYDYWGQGTLVTVSS
B27: BMS3h-38-237 (other)
VH: EVQLLASGGGLVQPGGSLRLSCAASGFTFEEEEMIWVRQAPGKGLEWVSAISRGGWSTYYADSVKGRFTISRDNSKNTLYLQMNSLRAEDTAVYYCGKEPFRYDYWGQGTLVTVSS
B28: BMS3h-38-3 (other)
VH: EVQLLASGGGLVQPGGSLRLSCAASGFTFEEEEMIWVRQAPGKGLEWISAISGSGGSTYYADSVKGRFTISRDNSKNTLYLQMNSLRAEDTAVYYCGKEPFRFDYWGQGTLVTVSS

The binders below were run against human CD40 (human, UniProt P25942 21-277) (assay: cell-based or functional assay).
human CD40, sequence (P25942 21-277 limits assumed): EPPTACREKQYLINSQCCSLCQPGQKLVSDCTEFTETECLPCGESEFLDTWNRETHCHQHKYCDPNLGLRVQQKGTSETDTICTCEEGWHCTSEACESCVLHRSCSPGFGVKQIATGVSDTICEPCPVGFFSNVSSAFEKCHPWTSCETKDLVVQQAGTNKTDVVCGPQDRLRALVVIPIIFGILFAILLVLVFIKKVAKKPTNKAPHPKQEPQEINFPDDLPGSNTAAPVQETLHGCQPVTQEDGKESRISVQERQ

In order of falling “hIZCD40L-driven Human B Cell Proliferation EC50” value:
1. B2  208 nM
2. B23  180 nM
3. B4  148 nM
4. B1  104 nM
5. B22  87 nM
6. B21  53 nM
7. B3  47 nM
8. B24  30 nM
9. B28  10 nM
10. B5  7 nM
11. B13  3 nM
12. B26  0.7 nM
13. B11  0.6 nM
14. B8  0.5 nM
15. B9  0.45 nM
16. B18  0.4 nM
17. B25  0.4 nM
18. B27  0.4 nM
19. B20  0.36 nM
20. B19  0.27 nM
21. B7  0.24 nM
22. B10  0.2 nM
23. B6  0.17 nM
24. B15  0.15 nM
25. B14  0.12 nM
26. B12  0.11 nM
27. B16  0.1 nM
28. B17  0.1 nM

In order of rising “CHO-hCD40L-driven DC Activation IL-12 EC50” value:
1. B16  0.7 nM
2. B14  0.93 nM
3. B11  2.9 nM
4. B9  3.7 nM
5. B12  5.8 nM
6. B19  7.3 nM
7. B15  8.8 nM
8. B17  9.4 nM
9. B10  11 nM
10. B6  12.6 nM
11. B8  18 nM
12. B7  23.2 nM

In order of falling “CHO-hCD40L-driven Human B Cell Proliferation EC50” value:
1. B13  326 nM
2. B9  51 nM
3. B10  41 nM
4. B11  39 nM
5. B19  37 nM
6. B7  34 nM
7. B6  26 nM
8. B8  26 nM
9. B12  18 nM
10. B15  13.5 nM
11. B17  13 nM
12. B14  11 nM
13. B16  6 nM

In order of rising “T-B cell MLR EC50” value:
1. B16  5.25 nM
2. B14  7.25 nM
3. B12  13.5 nM
4. B15  14.2 nM
5. B17  16 nM
6. B6  21 nM
7. B7  23.8 nM
8. B10  31 nM
9. B19  42 nM
10. B8  47 nM
11. B11  50 nM
12. B9  52 nM
13. B13  276 nM
